# According to patent EP4737484A1 (Phil Rivers Technology Co., Ltd, dated 2026):
# Experiments:
# [1] = biological target: T1, huIL-1β-His (human, UniProt P01584 117-269); assay: ELISA, plate coated with huIL-1β-His, anti-human IgG Fc-HRP
# [2] = biological target: T2, full-length human PD-L1 on huPD-L1-CHO-K cells (human, UniProt Q9NZQ7 19-290); assay: flow cytometry on huPD-L1-CHO-K cells, PE anti-human IgG Fc
# T2 construct: also called huPD-L1-overexpressing-CHO-K cells; CD3L-PD-L1-CHO
# [3] = biological target: T3, huPD-L1-His (human, UniProt Q9NZQ7 19-238); assay: ELISA, plate coated with huPD-L1-His, anti-human IgG Fc-HRP
# T3 construct: also called human recombinant protein huPD-L1-His; antigen PD-L1
# [4] = biological target: T3, huPD-L1-His; assay: bridging ELISA: coated huIL-1β-Fc, antibody, then huPD-L1-His, anti-His-HRP
# [5] = biological target: T4, huIL-1β-Fc (human); assay: as above
# T4 construct: also called huIL-1β-Fe
# [6] = biological target: T1, huIL-1β-His; assay: bridging ELISA: coated huPD-L1-Fc, antibody, then huIL-1β-His, anti-His-HRP
# [7] = biological target: huPD-L1-Fc (human); assay: as above
# [8] = biological target: T1, huIL-1β-His; assay: ELISA, plate coated with huIL-1β-His, anti-human IgG Fc-HRP; positive control
binding result [1],binding result [2],Binder,also measured
binds,,"BsAb17 (bispecific antibody, Atezolizumab heavy (Knob) and light chain; Canakinumab VH-CL-Fc (hole); also called Construct BsAb17) heavy: not shown light: not shown chain 1: not shown chain 2: EIVLTQSPDFQSVTPKEKVTITCRASQSIGSSLHWYQQKPDQSPKLLIKYASQSFSGVPSRFSGSGSGTDFTLTINSLEAEDAAAYYCHQSSSLPFTFGPGTKVDIKSSASTKGPSVFPLAPSSKSTSGGTAALGCLVKDYFPEPVTVSWNSGALTSGVHTFPAVLQSSGLYSLSSVVTVPSSSLGTQTYICNVNHKPSNTKVDKKVEPKSC",
binds,,"BsAb22 (bispecific antibody, Atezolizumab heavy chain (Fc with F405L) and light chain; Canakinumab VH-CL-Fc (K409R); also called Construct BsAb22) heavy: not shown light: not shown chain 1: not shown chain 2: EIVLTQSPDFQSVTPKEKVTITCRASQSIGSSLHWYQQKPDQSPKLLIKYASQSFSGVPSRFSGSGSGTDFTLTINSLEAEDAAAYYCHQSSSLPFTFGPGTKVDIKSSASTKGPSVFPLAPSSKSTSGGTAALGCLVKDYFPEPVTVSWNSGALTSGVHTFPAVLQSSGLYSLSSVVTVPSSSLGTQTYICNVNHKPSNTKVDKRVEPKSC",
binds,binds,"BsAb25 (bispecific antibody, Canakinumab IgG1 heavy chain-(G4S)4-Atezolizumab scFv (VH G44C-(G4S)4-VL Q100C); also called Construct BsAb25) heavy: not shown light: EIVLTQSPDFQSVTPKEKVTITCRASQSIGSSLHWYQQKPDQSPKLLIKYASQSFSGVPSRFSGSGSGTDFTLTINSLEAEDAAAYYCHQSSSLPFTFGPGTKVDIKRTVAAPSVFIFPPSDEQLKSGTASVVCLLNNFYPREAKVQWKVDNALQSGNSQESVTEQDSKDSTYSLSSTLTLSKADYEKHKVYACEVTHQGLSSPVTKSFNRGEC",binding result [3]: binds
,binds,"BsAb29 (bispecific antibody, also called Construct BsAb29) heavy: not shown light: EIVLTQSPDFQSVTPKEKVTITCRASQSIGSSLHWYQQKPDQSPKLLIKYASQSFSGVPSRFSGSGSGTDFTLTINSLEAEDAAAYYCHQSSSLPFTFGPGTKVDIKRTVAAPSVFIFPPSDEQLKSGTASVVCLLNNFYPREAKVQWKVDNALQSGNSQESVTEQDSKDSTYSLSSTLTLSKADYEKHKVYACEVTHQGLSSPVTKSFNRGEC",binding result [4]: binds; binding result [5]: binds; binding result [6]: binds; binding result [7]: binds
binds,,"BsAb18 (bispecific antibody, Atezolizumab heavy (Knob) and light chain; Canakinumab VL-IgG1 constant region (hole); also called Construct BsAb18) heavy: not shown light: not shown chain 1: not shown chain 2: QVQLVESGGGVVQPGRSLRLSCAASGFTFSVYGMNWVRQAPGKGLEWVAIIWYDGDNQYYADSVKGRFTISRDNSKNTLYLQMNGLRAEDTAVYYCARDLRTGPFDYWGQGTLVTVSSASVAAPSVFIFPPSDEQLKSGTASVVCLLNNFYPREAKVQWKVDNALQSGNSQESVTEQDSKDSTYSLSSTLTLSKADYEKHKVYACEVTHQGLSSPVTKSFNRGEC",
,,"Canakinumab (antibody, human IgG1, kappa, V domains shown, also called positive control Canakinumab) VH: QVQLVESGGGVVQPGRSLRLSCAASGFTFSVYGMNWVRQAPGKGLEWVAIIWYDGDNQYYADSVKGRFTISRDNSKNTLYLQMNGLRAEDTAVYYCARDLRTGPFDYWGQGTLVTVSS VL: EIVLTQSPDFQSVTPKEKVTITCRASQSIGSSLHWYQQKPDQSPKLLIKYASQSFSGVPSRFSGSGSGTDFTLTINSLEAEDAAAYYCHQSSSLPFTFGPGTKVDIKR",binding result [8]: binds
